Data as given in the supplement of paper PMC6757056.
± gives the standard deviation of the averaged measurements.

B1: library; a variant is named by its letters at N, in order (parent)
chain: GCUGUCACCGGUGUAUUACCCUAGUGGUCGACCGGUCUGAUGAGUCUNNNNNNAGACGAAACAGC

Legend:
hypoxanthine [1] = variants of: B1; assay: normalized RNA/DNA level with ligand (relative to sTRSVctl = 100) (log10 (% of sTRSVctl)); ligand: hypoxanthine (xanthine aptamer); higher = less ribozyme self-cleavage, higher mRNA level; conditions: ligand concentration (+) RNA-Seq: 5 mM, HEK293T, reporter: mCherry (pCS4076), ligand present: yes
How it was run: (§1)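 HEK293T cells were transfected with library plasmids carrying ribozyme switches linked to an mCherry reporter, or an eGFP reporter in some ligand experiments, at 4 µg per well of a 6-well plate, with any ligand added 1 h beforehand. After 72 h, total RNA was extracted with EDTA, reverse-transcribed, amplified, barcoded and sequenced. RNA level was defined as RNA reads over DNA reads, normalized to a spiked-in non-cleaving sequence or to the top-ranked sequences. That value was multiplied by 100 and converted to log10, the top set was 25 sequences, and only sequences with ≥100 DNA reads were retained.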

hypoxanthine [2] = variants of: B1; assay: normalized RNA/DNA level without ligand (relative to sTRSVctl = 100) (log10 (% of sTRSVctl)); ligand: hypoxanthine (xanthine aptamer); higher = less ribozyme self-cleavage, higher mRNA level; conditions: HEK293T, reporter: mCherry (pCS4076), ligand present: no
How it was run: as §1

Row | Variant | normalized RNA/DNA level with ligand (log10) (hypoxanthine [1]) | normalized RNA/DNA level without ligand (log10) (hypoxanthine [2])
1 | GCUGUCACCGGUGUAUUACCCUAGUGGUCGACCGGUCUGAUGAGUCUACUCGCAGACGAAACAGC [ACUCGC] | 1.99 ± 0.041 | 1.93 ± 0.032
2 | GCUGUCACCGGUGUAUUACCCUAGUGGUCGACCGGUCUGAUGAGUCUACUCGUAGACGAAACAGC [ACUCGU] | 1.95 ± 0.033 | 1.89 ± 0.025
3 | GCUGUCACCGGUGUAUUACCCUAGUGGUCGACCGGUCUGAUGAGUCUCCUGCAAGACGAAACAGC [CCUGCA] | 2.011 ± 0.0089 | 1.9 ± 0.041
4 | GCUGUCACCGGUGUAUUACCCUAGUGGUCGACCGGUCUGAUGAGUCUCCUCGUAGACGAAACAGC [CCUCGU] | 1.98 ± 0.026 | 1.87 ± 0.031
5 | GCUGUCACCGGUGUAUUACCCUAGUGGUCGACCGGUCUGAUGAGUCUCCUCGCAGACGAAACAGC [CCUCGC] | 1.92 ± 0.054 | 1.92 ± 0.029
6 | GCUGUCACCGGUGUAUUACCCUAGUGGUCGACCGGUCUGAUGAGUCUUCUGACAGACGAAACAGC [UCUGAC] | 1.99 ± 0.031 | 1.8115 ± 0.00067
7 | GCUGUCACCGGUGUAUUACCCUAGUGGUCGACCGGUCUGAUGAGUCUUCUGAUAGACGAAACAGC [UCUGAU] | 1.94 ± 0.066 | 1.77 ± 0.096
8 | GCUGUCACCGGUGUAUUACCCUAGUGGUCGACCGGUCUGAUGAGUCUUCUGAGAGACGAAACAGC [UCUGAG] | 1.927 ± 0.0088 | 1.58 ± 0.035
9 | GCUGUCACCGGUGUAUUACCCUAGUGGUCGACCGGUCUGAUGAGUCUCCUCUUAGACGAAACAGC [CCUCUU] | 2.011 ± 0.018 | 1.9823 ± 0.00045
10 | GCUGUCACCGGUGUAUUACCCUAGUGGUCGACCGGUCUGAUGAGUCUCCUCUGAGACGAAACAGC [CCUCUG] | 1.96 ± 0.038 | 1.98 ± 0.035
11 | GCUGUCACCGGUGUAUUACCCUAGUGGUCGACCGGUCUGAUGAGUCUCCUCUAAGACGAAACAGC [CCUCUA] | 1.98 ± 0.05 | 1.926 ± 0.015
12 | GCUGUCACCGGUGUAUUACCCUAGUGGUCGACCGGUCUGAUGAGUCUGCUCUCAGACGAAACAGC [GCUCUC] | 1.98 ± 0.021 | 1.89 ± 0.079
13 | GCUGUCACCGGUGUAUUACCCUAGUGGUCGACCGGUCUGAUGAGUCUGCUCUAAGACGAAACAGC [GCUCUA] | 1.941 ± 0.0064 | 1.79 ± 0.035
14 | GCUGUCACCGGUGUAUUACCCUAGUGGUCGACCGGUCUGAUGAGUCUGCUCUUAGACGAAACAGC [GCUCUU] | 1.97 ± 0.052 | 1.91 ± 0.037
15 | GCUGUCACCGGUGUAUUACCCUAGUGGUCGACCGGUCUGAUGAGUCUCCUCCAAGACGAAACAGC [CCUCCA] | 1.94 ± 0.026 | 1.95 ± 0.067
16 | GCUGUCACCGGUGUAUUACCCUAGUGGUCGACCGGUCUGAUGAGUCUCCUCCUAGACGAAACAGC [CCUCCU] | 1.95 ± 0.074 | 1.96 ± 0.026
17 | GCUGUCACCGGUGUAUUACCCUAGUGGUCGACCGGUCUGAUGAGUCUUCUCCAAGACGAAACAGC [UCUCCA] | 1.93 ± 0.069 | 1.77 ± 0.019
18 | GCUGUCACCGGUGUAUUACCCUAGUGGUCGACCGGUCUGAUGAGUCUUCUCCGAGACGAAACAGC [UCUCCG] | 1.85 ± 0.036 | 1.43 ± 0.1
19 | GCUGUCACCGGUGUAUUACCCUAGUGGUCGACCGGUCUGAUGAGUCUUCUCCUAGACGAAACAGC [UCUCCU] | 1.99 ± 0.059 | 1.87 ± 0.028
20 | GCUGUCACCGGUGUAUUACCCUAGUGGUCGACCGGUCUGAUGAGUCUUCUCCCAGACGAAACAGC [UCUCCC] | 1.98 ± 0.14 | 1.77 ± 0.022
21 | GCUGUCACCGGUGUAUUACCCUAGUGGUCGACCGGUCUGAUGAGUCUGCUGACAGACGAAACAGC [GCUGAC] | 1.9 ± 0.034 | 1.63 ± 0.034

Row | Variant | normalized RNA/DNA level with ligand (log10) (hypoxanthine [1]) | normalized RNA/DNA level without ligand (log10) (hypoxanthine [2])
22 | GCUGUCACCGGUGUAUUACCCUAGUGGUCGACCGGUCUGAUGAGUCUGCUGAGAGACGAAACAGC [GCUGAG] | 1.85 ± 0.083 | 1.347 ± 0.012
23 | GCUGUCACCGGUGUAUUACCCUAGUGGUCGACCGGUCUGAUGAGUCUUCUCAUAGACGAAACAGC [UCUCAU] | 1.975 ± 0.012 | 1.887 ± 0.01
24 | GCUGUCACCGGUGUAUUACCCUAGUGGUCGACCGGUCUGAUGAGUCUACUCCAAGACGAAACAGC [ACUCCA] | 2.014 ± 0.018 | 1.91 ± 0.023
25 | GCUGUCACCGGUGUAUUACCCUAGUGGUCGACCGGUCUGAUGAGUCUACUCCUAGACGAAACAGC [ACUCCU] | 1.965 ± 0.011 | 1.905 ± 0.018
26 | GCUGUCACCGGUGUAUUACCCUAGUGGUCGACCGGUCUGAUGAGUCUGCUCCUAGACGAAACAGC [GCUCCU] | 2.027 ± 0.006 | 1.981 ± 0.015
27 | GCUGUCACCGGUGUAUUACCCUAGUGGUCGACCGGUCUGAUGAGUCUGCUCCAAGACGAAACAGC [GCUCCA] | 1.936 ± 0.018 | 1.81 ± 0.025
28 | GCUGUCACCGGUGUAUUACCCUAGUGGUCGACCGGUCUGAUGAGUCUGCUCCCAGACGAAACAGC [GCUCCC] | 1.93 ± 0.043 | 1.84 ± 0.02
29 | GCUGUCACCGGUGUAUUACCCUAGUGGUCGACCGGUCUGAUGAGUCUGCUCCGAGACGAAACAGC [GCUCCG] | 1.88 ± 0.12 | 1.38 ± 0.075
30 | GCUGUCACCGGUGUAUUACCCUAGUGGUCGACCGGUCUGAUGAGUCUCCUGACAGACGAAACAGC [CCUGAC] | 1.92 ± 0.1 | 1.83 ± 0.035
31 | GCUGUCACCGGUGUAUUACCCUAGUGGUCGACCGGUCUGAUGAGUCUCCUGAUAGACGAAACAGC [CCUGAU] | 1.909 ± 0.004 | 1.821 ± 0.013
32 | GCUGUCACCGGUGUAUUACCCUAGUGGUCGACCGGUCUGAUGAGUCUCCUGAAAGACGAAACAGC [CCUGAA] | 1.98 ± 0.078 | 1.78 ± 0.075
33 | GCUGUCACCGGUGUAUUACCCUAGUGGUCGACCGGUCUGAUGAGUCUGCUCGUAGACGAAACAGC [GCUCGU] | 1.96 ± 0.042 | 1.83 ± 0.048
34 | GCUGUCACCGGUGUAUUACCCUAGUGGUCGACCGGUCUGAUGAGUCUGCUCAUAGACGAAACAGC [GCUCAU] | 1.95 ± 0.026 | 1.801 ± 0.018
35 | GCUGUCACCGGUGUAUUACCCUAGUGGUCGACCGGUCUGAUGAGUCUGCUGCAAGACGAAACAGC [GCUGCA] | 1.98 ± 0.021 | 1.83 ± 0.034
36 | GCUGUCACCGGUGUAUUACCCUAGUGGUCGACCGGUCUGAUGAGUCUACUCUCAGACGAAACAGC [ACUCUC] | 2.06 ± 0.025 | 2.014 ± 0.005
37 | GCUGUCACCGGUGUAUUACCCUAGUGGUCGACCGGUCUGAUGAGUCUUCUCGUAGACGAAACAGC [UCUCGU] | 1.96 ± 0.053 | 1.83 ± 0.045
38 | GCUGUCACCGGUGUAUUACCCUAGUGGUCGACCGGUCUGAUGAGUCUUCUCGCAGACGAAACAGC [UCUCGC] | 1.99 ± 0.022 | 1.757 ± 0.0053
39 | GCUGUCACCGGUGUAUUACCCUAGUGGUCGACCGGUCUGAUGAGUCUUCUCGAAGACGAAACAGC [UCUCGA] | 1.93 ± 0.057 | 1.832 ± 0.013
40 | GCUGUCACCGGUGUAUUACCCUAGUGGUCGACCGGUCUGAUGAGUCUUCUCGGAGACGAAACAGC [UCUCGG] | 1.92 ± 0.032 | 1.7302 ± 0.00058
41 | GCUGUCACCGGUGUAUUACCCUAGUGGUCGACCGGUCUGAUGAGUCUUCUCUUAGACGAAACAGC [UCUCUU] | 1.94 ± 0.043 | 1.814 ± 0.017
42 | GCUGUCACCGGUGUAUUACCCUAGUGGUCGACCGGUCUGAUGAGUCUUCUCUCAGACGAAACAGC [UCUCUC] | 2.025 ± 0.016 | 1.94 ± 0.09
